± gives the uncertainty stated by the source.
Experiment: amyloid nucleation score (Sup35N fusion, yeast selection) (log enrichment); library NNK2; higher = more nucleation; inactive = no reads after selection
Summary of the method: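 In psi-negative yeast, Sup35N fusions carrying peptides of 20 random codons were induced with 100 μM copper sulfate for 24 hours. The cells then grew 7 days at 30°C on medium lacking adenine and uracil, and plasmid inserts from input and output were Illumina-sequenced, excluding sequences with under 100 input reads. Nucleation score is the DiMSum log enrichment of output over input reads, centred on the mode score of non-aggregating sequences.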

Work on TSGPLFAPPC yielded an amyloid nucleation score of 0.402 ± 0.66.

LSSPLNLQHVFPLTWMYLC showed an amyloid nucleation score of -0.742 ± 1.1.

For SSPAACYMR, the amyloid nucleation score was -1.69 ± 1.1.

Substance KTCTLIGAMLIA has an amyloid nucleation score of -0.385 ± 0.56.

For LNTKTCVIPSTTCVTIPERE, the amyloid nucleation score was 0.242 ± 0.17.

TSGVTWQLACSVK gave an amyloid nucleation score of 4.2 ± 0.095.

IRFQCRSLRFTAIGGQVSWI gave an amyloid nucleation score of 3.48 ± 0.095.

Work on LLYTTCSFGYLMQKFVL yielded an amyloid nucleation score of 1.58 ± 0.31.

For VYEGSLCLAYERLTGMGFIK, the amyloid nucleation score was -0.382 ± 0.29.

Substance GYNTRKYWISGYNTTDSPGK has an amyloid nucleation score of -1.13 ± 0.35.

In the case of PYSFSV, the amyloid nucleation score is reported as “inactive”.

Substance EDFYAYFLIRRCVACAIIFL has an amyloid nucleation score of 3.02 ± 0.15.

LSVCGSWDRRRFGGYDLWCT showed an amyloid nucleation score of 0.903 ± 0.48.

For WASLGYTCFGKVRRWAPGTH, the amyloid nucleation score was 0.371 ± 0.28.

For MLYLCMFTERVDDNTFALYR, the amyloid nucleation score was “inactive”.

Substance NAYWNDGFVQAFGRGK has an amyloid nucleation score of -0.644 ± 0.63.

For ASSSGPGCSLVSSVHASRQG, the amyloid nucleation score was 1.54 ± 0.52.

KFNCLGLWDEYHNSM gave an amyloid nucleation score of 0.259 ± 0.43.

With ECVRTLFYKLMTFAWLELRS the amyloid nucleation score was -1.02 ± 0.76.

Work on MVLASAAKVMEVLNSKQFT yielded an amyloid nucleation score of 1.42 ± 0.13.

Substance NLAFSSSIRPLITLEGELLP has an amyloid nucleation score of -0.176 ± 1.1.

Work on MRGTRACIFKRQDTSNTLNE yielded an amyloid nucleation score of -1.42 ± 0.62.

In the case of DWNTWTSNFLALTGAWTGLG, the amyloid nucleation score is reported as 0.062 ± 0.77.

With RMRCTIMLMTGKRTCYLMRE the amyloid nucleation score was -0.216 ± 0.41.

In the case of CDFLWWPTQFANRRTKVGVW, the amyloid nucleation score is reported as 0.083 ± 0.76.

FWIDTYGGTNFKGCICIITG gave an amyloid nucleation score of 4.39 ± 0.11.

With TGNDFSCFPRALEMATWTTV the amyloid nucleation score was 0.016 ± 1.1.

For WCKQGVGCDLGAMVELSKGG, the amyloid nucleation score was 1.22 ± 0.28.

In the case of YCMASLSSLNLVRHWDDESS, the amyloid nucleation score is reported as -1.01 ± 1.1.

Substance FDLWIPGAVVEVIDMGSAAR has an amyloid nucleation score of 0.651 ± 0.44.

Substance IYTSSGL has an amyloid nucleation score of -0.902 ± 0.54.

For VSLHKRPTWLPVCIARYGWS, the amyloid nucleation score was 0.333 ± 0.24.

YIGQVGYRCSAVGQSYSRPG showed an amyloid nucleation score of 1.87 ± 0.47.

MLVMTMLWKMFSVAG showed an amyloid nucleation score of 0.432 ± 0.26.

With YRLYDRENSAICYISYTLLL the amyloid nucleation score was 2.36 ± 0.069.

For WFDYGR, the amyloid nucleation score was “inactive”.

Work on IFRDNVYFIE yielded an amyloid nucleation score of -0.692 ± 1.

WYSIIREEAALSYCSSHYKN gave an amyloid nucleation score of 2.49 ± 0.15.

Work on LVHMLCQ yielded an amyloid nucleation score of 0.893 ± 0.24.

Work on NFIVIALRGTDNTYSLSGLS yielded an amyloid nucleation score of 6.407 ± 0.043.

Work on SHTITSGWCAGWIGFSPICR yielded an amyloid nucleation score of 0.932 ± 0.32.

Work on MRKWTVSGIRGGRN yielded an amyloid nucleation score of 0.879 ± 0.23.

MSCTRDSLCLNFLVILFTTQ gave an amyloid nucleation score of 3.03 ± 0.065.

Work on DLGPLFDCCSVYGGAECCIE yielded an amyloid nucleation score of -0.1 ± 0.49.

VWLEACGFSRIFSLQFLVSV showed an amyloid nucleation score of -0.476 ± 0.76.

Substance SFRLISRVLRCNMIQ has an amyloid nucleation score of -0.881 ± 0.37.

Substance RIYLGRQYYRSEGLKQLVNG has an amyloid nucleation score of 0.151 ± 0.63.

SWRWKATAT gave an amyloid nucleation score of -1.09 ± 0.45.

RSMYFGVQSLMYRSRLPKGS showed an amyloid nucleation score of 4.01 ± 0.067.

VYCEDGY showed an amyloid nucleation score of 0.641 ± 0.36.

LAMTAAKIMDRFNGCSLKSF showed an amyloid nucleation score of 0.648 ± 0.74.

For HVSFLIDRNTMRGLMASSNN, the amyloid nucleation score was “inactive”.

Substance HDQGSTMFCGRNAATLSQCW has an amyloid nucleation score of 1.54 ± 0.25.

FGTRHYLYSTSHHAHLGVDM gave an amyloid nucleation score of 1.83 ± 0.21.

For VHLTAVWCLDRRRVRKIFIV, the amyloid nucleation score was -0.802 ± 0.76.

Work on TGAGVNTGEFCWVDPRSDYQ yielded an amyloid nucleation score of -0.161 ± 1.1.

For YDLLGHKAVFEGERVNW, the amyloid nucleation score was 0.003 ± 0.4.

With SFINVLDQRVILRPPTRVFV the amyloid nucleation score was 0.494 ± 0.65.

HTEFGRVGNICLGMRCEVDW gave an amyloid nucleation score of 0.792 ± 0.4.

In the case of DVLFDITNNGHSSLLAAV, the amyloid nucleation score is reported as 0.224 ± 0.8.

SPLRALLTHVWRKQHTYFSN gave an amyloid nucleation score of 3.14 ± 0.08.

RYHSRAWAPYCTTHATVPEV showed an amyloid nucleation score of 1.28 ± 0.29.

For CSTLVRIR, the amyloid nucleation score was 0.723 ± 0.46.

In the case of LSHKSVRAKENPIQSSQCES, the amyloid nucleation score is reported as 1.2 ± 0.33.

Work on RVIQLQKVTHWW yielded an amyloid nucleation score of 2.72 ± 0.078.

Substance TIYPFYEKRMRY has an amyloid nucleation score of -0.459 ± 1.1.

With YGRSTHPGSRSF the amyloid nucleation score was -1.25 ± 0.63.

In the case of YRPITRMCSWDRNSLWWSRY, the amyloid nucleation score is reported as -0.582 ± 0.54.

In the case of QVKLFYRLRPSFLCVFPFNL, the amyloid nucleation score is reported as “inactive”.

Work on NLIKNSAMLSSTRPIYHHSI yielded an amyloid nucleation score of -1.27 ± 0.3.

EIYGFLVIICLLYGSLVSRW showed an amyloid nucleation score of -0.2 ± 0.45.

With RIVMKRRFYCKSWSLIVHPG the amyloid nucleation score was -0.826 ± 0.28.

With WGVCSQGYNVRIRVVARQKF the amyloid nucleation score was “inactive”.

In the case of VVYDHILVAKFRAFVLGPFL, the amyloid nucleation score is reported as 4.07 ± 0.054.

For CAPFVRDFINMVCRRMPNTN, the amyloid nucleation score was 0.566 ± 0.66.

In the case of LFDLWSVEFC, the amyloid nucleation score is reported as -0.392 ± 0.43.

For TKVGYLNS, the amyloid nucleation score was “inactive”.

RCLLTYSVEYWRIFGTSPDS gave an amyloid nucleation score of 0.157 ± 0.5.

In the case of IRFKVMGFMFFVSW, the amyloid nucleation score is reported as 0.094 ± 0.65.

Work on CLSNL yielded an amyloid nucleation score of -0.864 ± 0.48.

Substance PNRTFLLKVGA has an amyloid nucleation score of -1.1 ± 1.1.

Substance MFARDNRFPYCDDTRSDSSF has an amyloid nucleation score of 0.178 ± 0.45.

With CECVSSCVYSVILLGCTRSF the amyloid nucleation score was “inactive”.

For EGTRIDLVKRRVNLWCI, the amyloid nucleation score was -0.296 ± 0.76.

For PRSYWRSYWAKVLDYQLIPR, the amyloid nucleation score was 3.55 ± 0.07.

TYGCLFDSSIMSFQLSLDNF showed an amyloid nucleation score of -0.28 ± 0.49.

For DQIEIISLKNCTVG, the amyloid nucleation score was “inactive”.

Substance LVFRMQHSLTHGLLSEPGNR has an amyloid nucleation score of 2.28 ± 0.17.

For IVTAGWNLVFRKYADTRMVQ, the amyloid nucleation score was -0.337 ± 1.1.

With EMYFALLVLFVLGGFSM the amyloid nucleation score was -0.409 ± 0.76.

Work on IRKCICSWCVECILRNPAKA yielded an amyloid nucleation score of -0.434 ± 0.4.

Substance SCLYSSRPSMLGTIYRRMRC has an amyloid nucleation score of 0.163 ± 0.34.

In the case of CRRGDLKDDEIYAMHLHRVS, the amyloid nucleation score is reported as -1.12 ± 0.78.

In the case of FRFVEFNNSGNVCPLIFTLS, the amyloid nucleation score is reported as -0.266 ± 0.65.

Work on DLAFNFASWLCRAKFNGSRC yielded an amyloid nucleation score of 5.04 ± 0.09.

EKQKWYYLELREAAQC gave an amyloid nucleation score of 0.284 ± 0.2.

Work on ILMCETLWNWLKWIPKFNSC yielded an amyloid nucleation score of -0.403 ± 0.5.

Work on SFRSMIQQSAAGFYSSFIST yielded an amyloid nucleation score of -1.89 ± 1.1.

With LRDIYNFGDSHYFRNYSVTE the amyloid nucleation score was -0.132 ± 0.31.

For VCRPRTTNIGAWRRFRFLFW, the amyloid nucleation score was -0.601 ± 0.41.

Substance SRKNRSRVSTTISR has an amyloid nucleation score of -0.731 ± 0.3.

VRDSSNYMTLFRCSNFWHTR showed an amyloid nucleation score of 6.488 ± 0.051.

KSYLFESRKIGIVTNMGSYF showed an amyloid nucleation score of -0.594 ± 1.1.

Work on KRARR yielded an amyloid nucleation score of 0.356 ± 0.4.

For LCGSRKRCGEMLRRKLGKYV, the amyloid nucleation score was 0.602 ± 0.81.

For NWDSINFYRAVSYCDHIFYV, the amyloid nucleation score was “inactive”.

VKQWT showed an amyloid nucleation score of 1.74 ± 0.24.

With CSAVAALLPILGMELIGTSI the amyloid nucleation score was -0.41 ± 0.55.

In the case of VFGVLPIIGYPVRVLCVRFI, the amyloid nucleation score is reported as -0.43 ± 1.1.

With LSNLWSSSF the amyloid nucleation score was “inactive”.

With DTPGHGNACSKIRP the amyloid nucleation score was -0.159 ± 0.55.

For PYQSTCSDRSFYVCVCELHW, the amyloid nucleation score was 0.241 ± 0.8.

VSKPQKRFKDEFYSLLSVKF gave an amyloid nucleation score of -0.55 ± 0.76.

With LNLLDGWFL the amyloid nucleation score was -0.7 ± 0.48.

CIVSVNERRVVFGAVNTEFR gave an amyloid nucleation score of 4.79 ± 0.058.

SNCSKCVKVYTSPCLWSLCG showed an amyloid nucleation score of 3.46 ± 0.083.

YKLYTFCKSRMHVPAYGFSY gave an amyloid nucleation score of -1.96 ± 1.1.

For YFNSSVLILVVWLLY, the amyloid nucleation score was “inactive”.

In the case of YVGHRTMMKFTIIVIYYMYP, the amyloid nucleation score is reported as -1.5 ± 1.

With GLLEAWEDFLGRMHGVGLVC the amyloid nucleation score was 4.15 ± 0.051.

With NMWTFRSIMIPALFYEIFIA the amyloid nucleation score was -1.75 ± 0.54.

For VVENRALLYGGFVR, the amyloid nucleation score was 0.135 ± 0.63.

Substance NLYMFIRRAPDIIFCAHVYQ has an amyloid nucleation score of 4.35 ± 0.051.

Work on TYMCQYDSLLTKTMINNRRG yielded an amyloid nucleation score of -0.611 ± 0.61.

Reference: the supplement of paper PMC12042874
